What was measured:
Experiment in all cases: cell-based or functional assay
[1] = target: HIV-1 Env of isolate MGRM-Chronic-B-018 (subtype B), on pseudovirus (HIV-1)
[2] = target: HIV-1 envelope glycoprotein (Env) of isolate MG RM-A-003 (HIV-1)
[3] = target: HIV-1 IAVI_C22 envelope protein (Env) on pseudotyped virus (HIV-1 strain IAVI C22)
[4] = target: HIV-1 Env of isolate MGRM-Chronic-B-010 (subtype B), on pseudovirus (HIV-1)
[5] = target: HIV-1 envelope glycoprotein (Env) of isolate 92UG031 (HIV-1)
[6] = target: HIV-1 93IN905 envelope protein (Env) on pseudotyped virus (HIV-1 strain 93IN905)
[7] = target: HIV-1 92RW020 envelope glycoprotein (Env), on pseudovirus (HIV-1 isolate 92RW020 (clade A))
[8] = target: HIV-1 envelope glycoprotein (Env) of isolate 92RW008 (HIV-1)
[9] = target: HIV-1 Env of isolate MG RM-C-023 (HIV-1)
[10] = target: HIV-1 envelope glycoprotein (Env) of isolate 93WR029 (HIV-1)
[11] = target: HIV-1 Env of isolate MGRM-A-012 (pseudovirus) (HIV-1)
[12] = target: HIV-1 NL43 envelope protein (Env) on pseudotyped virus (HIV-1 strain NL43)
[13] = target: HIV-1 envelope glycoprotein (Env) of isolate 92WR021 (HIV-1)
[14] = target: HIV-1 Env of pseudovirus MGRM-F1-013 (clade F) (HIV-1)
[15] = target: HIV-1 JR-CSF Env N262A (HIV-1 (isolate JR-CSF)) (UniProt P20871)
[16] = target: HIV-1 JR-CSF Env I326A (HIV-1 isolate JR-CSF) (UniProt P20871)
[17] = target: HIV-1 JR-CSF Env K305A (HIV-1 (isolate JR-CSF, clade B)) (UniProt P20871)
[18] = target: HIV-1 JR-CSF Env T202A (HIV-1 (isolate JR-CSF)) (UniProt P20871)
[19] = target: HIV-1 Env of isolate MGRM-F1-014 (pseudovirus) (HIV-1)
[20] = target: HIV-1 envelope glycoprotein (Env) of isolate 92WR026, subtype A (HIV-1)
[21] = target: HIV-1 JR-CSF Env D325A (HIV-1 isolate JR-CSF) (UniProt P20871)
[22] = target: HIV-1 JR-CSF Env T320A (HIV-1 (isolate JR-CSF, clade B)) (UniProt P20871)
[23] = target: HIV-1 envelope glycoprotein (Env) of isolate JR-FL, on pseudovirus (HIV-1)

Row | Substance | IC50, single-round pseudovirus neutralization [1] [µg/mL] | IC50 [2] [µg/mL] | IC50, single-round pseudovirus neutralization [4] [µg/mL] | IC50 [5] [µg/mL] | IC50 [8] [µg/mL] | IC50 (µg/mL), pseudovirus neutralization [9] [µg/mL] | IC50 [10] [µg/mL] | IC50 (µg/mL), pseudovirus neutralization [11] [µg/mL] | IC50 [13] [µg/mL] | Fold IC50 increase relative to wild-type [16] [fold] | Fold IC50 increase relative to wild-type [17] [fold] | other results
1 | 1496_C09 (PG9) (TCN-109) (antibody) | 0.216 | 1.94 | 0.004 | 3.6 | 0.006 | 0.614 | 0.69 | 19.3 | 0.027 | – | – | IC50, Neutralizing Antibody Assay, Virus/Ab Incubation 1 hour [3]: 24.9 µg/mL; IC50, Neutralizing Antibody Assay, Virus/Ab Incubation 18 hour [3]: 2.11 µg/mL; IC50, Neutralizing Antibody Assay, Virus/Ab Incubation 1 hour [6]: 0.144 µg/mL; IC50, Neutralizing Antibody Assay, Virus/Ab Incubation 18 hour [6]: 0.0619 µg/mL; IC50 (ug/ml), pseudovirus neutralization, TZM-bl assay [7]: 0.1 µg/mL; IC50, Neutralizing Antibody Assay, Virus/Ab Incubation 1 hour [12]: 0.294 µg/mL; IC50, Neutralizing Antibody Assay, Virus/Ab Incubation 18 hour [12]: 38 µg/mL; IC50 [14]: 0.56 µg/mL
2 | 5114_A19 (PGT-128) (antibody) | – | – | – | – | – | – | – | – | – | 1.6 | 1.8 | Fold IC50 increase relative to wild-type [15]: 1.6 fold
3 | 5145_B14 (PGT-127) (antibody) | – | – | – | – | – | – | – | – | – | 3.5 | 2.6 | Fold IC50 increase relative to wild-type [18]: 1.8 fold; IC50 (µg/mL), pseudovirus neutralization [19]: > 50 µg/mL; IC50, pseudovirus neutralization [20]: 0.024 µg/mL; Fold IC50 increase relative to wild-type [21]: 0.93 fold; Fold IC50 increase relative to wild-type [22]: 1.8 fold; IC50, pseudovirus neutralization [23]: 0.029 µg/mL
4 | PGV04 (antibody) | 0.164 | 0.128 | 0.744 | 4.46 | 0.014 | 0.128 | 0.54 | 0.225 | 0.038 | – | – | –
